The target in this assay is PFN2 (endogenous, isoform not told apart) (human (endogenous in HAP1)) (UniProt P35080).

Consider one substance from article PMC7864067.

Sequence of UniProt P35080 (P35080 whole entry, canonical isoform): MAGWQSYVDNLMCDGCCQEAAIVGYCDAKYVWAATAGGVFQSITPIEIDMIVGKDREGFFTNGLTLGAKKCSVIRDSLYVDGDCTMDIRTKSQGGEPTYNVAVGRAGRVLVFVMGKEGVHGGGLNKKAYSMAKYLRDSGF

V5-NAA80 (M23L) Δ238-284 (enzyme) registered an actin reacetylation assay in HAP1 NAA80-KO cells, 8-14 h after transfection: Ac-β-actin signal normalised to V5, compared with cells transfected with NAA80-WT, at 14 h of 64% and an actin reacetylation assay in HAP1 NAA80-KO cells, 8-14 h after transfection: Ac-γ-actin signal normalised to V5, compared with cells transfected with NAA80-WT, at 14 h of 62%.
